B1: 373_D09 (antibody, V domains shown)
VH: EVQLLESGGGLVQPGGSLRLSCAASGFTFDSYSMNWVRQAPGKGLEWVSGINYNSGYTSYADSVKGRFTISRDNSKNTLYLQMNSLRAEDTAVYYCARSATWHDTHLDYWGQGTLVTVSS
VL: DIQMTQSPSSLSASVGDRVTITCRASQSILTYLNWYQQKPGKAPKLVIYAATSRHSGVPSRFSGSGSGTDFTLTISSLQPEDFATYYCQQSYENPLTFGGGTKVEIK
B2: 368_B04 (antibody, V domains shown)
VH: B1 VH with S33G, N35H, G50S, S55G, S99A
VL: B1 VL with L30V, T31S, H55A
B3: 374_G01 (antibody, V domains shown)
VH: B1 VH with G50N
VL: B1 VL with L33V, V47L, A51T, E93N, N94L
B4: 367_H08 (antibody, V domains shown)
VH: B1 VH with S33G, G50S, S55G, S99A
VL: B1 VL with L33V, V47L, E93N, N94L
B5: 371_F12 (antibody, V domains shown)
VH: B1 VH with G50N, S55G, T58K
VL: B1 VL with L30I, T31S, V47L, H55A, Y92N, E93N, N94L
B6: 375_G12 (antibody, V domains shown)
VH: B1 VH with S33G, N35H, G50S, S55G
VL: B1 VL with L30V, T31S, L33V, V47L, E93D, N94T
B7: 366_C07 (antibody, V domains shown)
VH: B1 VH with D30S, G50N, S55G
VL: B1 VL with L33V, V47L, H55A, E93N, N94S
B8: 371_B10 (antibody, V domains shown)
VH: B1 VH with G50N, S55G, S59G
VL: B1 VL with L30V, T31S, L33V, V47L, H55A, E93D, N94L
B9: 375_G10 (antibody, V domains shown)
VH: B1 VH with D30S, S33G, G50S, S55G, T58K
VL: B1 VL with L30V, E93D, N94T
B10: 374_C07 (antibody, V domains shown)
VH: B1 VH with G50N, S55G
VL: B1 VL with L30I, T31S, V47L, H55A, Y92D, N94L
B11: 365_A02 (antibody, V domains shown)
VH: B1 VH with G50N, S55G
VL: B1 VL with L33V, V47L, H55A, E93N, N94S
B12: 368_G07 (antibody, V domains shown)
VH: B1 VH with D30S, N35H, G50S, S55G
VL: B1 VL with L30V, T31S, L33V, H55A, E93D, N94T
B13: 374_E03 (antibody, V domains shown)
VH: B1 VH with D30S, G50N, T58K, S59G
VL: B1 VL with L33V, R54L, H55A, E93D, N94T
B14: 365_D06 (antibody, V domains shown)
VH: B1 VH with G50N, S55G
VL: B1 VL with L33V, V47L, H55A, E93S, N94L
B15: 375_F01 (antibody, V domains shown)
VH: B1 VH with D30S, G50S, S59G
VL: B1 VL with L30V, T31S, H55A, E93D
B16: 367_H04 (antibody, V domains shown)
VH: B1 VH with D30S, G50S, S55G
VL: B1 VL with L33V, V47L, Y92D, E93N
B17: 370_A10 (antibody, V domains shown)
VH: B1 VH with D30S, S31D, G50S, T58K, S59G
VL: B1 VL with T31S, L33V, V47L, R54L, H55A, E93D, N94T
B18: 365_E04 (antibody, V domains shown)
VH: B1 VH with S33G, N35H, S49A, G50S, S55G, T58K, S99A, T101N, H106A
VL: B1 VL with T31S, L33V, V47L, R54L, H55A, N94L
B19: 373_A07 (antibody, V domains shown)
VH: B1 VH with D30S, G50N, S55G, S59G
VL: B1 VL with L33V, V47L, H55A, Y92D, E93N, N94L
B20: 367_G03 (antibody, V domains shown)
VH: B1 VH with N35H, S49A, G50N, S55G, S99A
VL: B1 VL with L30V, T31S, L33V, E93D, N94L
B21: 374_D11 (antibody, V domains shown)
VH: B1 VH with S33G, G50N, S59G
VL: B1 VL with V47L, H55A, N94T
B22: 365_G02 (antibody, V domains shown)
VH: B1 VH with D30S, S31D, G50N, T58K, S59G
VL: B1 VL with L30V, A51V, R54L, N94L
B23: 368_B12 (antibody, V domains shown)
VH: B1 VH with S33G, N35H, S99A
VL: B1 VL with L30V, T31S, L33V, V47L, H55A, E93D, N94L
B24: 367_G08 (antibody, V domains shown)
VH: B1 VH with S33G, G50N, S55G, T58K, S59G
VL: B1 VL with T31S, V47L, H55A
B25: 373_D02 (antibody, V domains shown)
VH: B1 VH with D30S, G50N, T58K, S59G
VL: B1 VL with T31S, V47L, R54L, H55A, E93D, N94L
B26: 366_E03 (antibody, V domains shown)
VH: B1 VH with S33G, G50N, S55G, T58K
VL: B1 VL with E93S
B27: 368_H10 (antibody, V domains shown)
VH: B1 VH with D30S, G50S, T58K, S59G
VL: B1 VL with L30V, T31S, L33V, A51V, R54L, H55A, N94T
B28: 371_B05 (antibody, V domains shown)
VH: B1 VH with D30S
VL: B1 VL with R54L, H55A, Y92D, N94T
B29: 367_F08 (antibody, V domains shown)
VH: B1 VH with D30S, S33G, N35H, G50S, S99A
VL: B1 VL with T31S, L33V, H55A, Y92N, N94L
B30: 374_A03 (antibody, V domains shown)
VH: B1 VH with G50N, S55G
VL: B1 VL with V47L, H55A, E93D
B31: 369_G09 (antibody, V domains shown)
VH: B1 VH with G50N, S55G, S59G
VL: B1 VL with L30V, V47L, H55A, E93D, N94L
B32: 368_C07 (antibody, V domains shown)
VH: B1 VH with D30S, S33G, N35H, S49A, S99A
VL: B1 VL with L30V, T31S, L33V, H55A
B33: 366_C03 (antibody, V domains shown)
VH: B1 VH with S33G, G50N, S55G, S59G
VL: B1 VL with T31S, H55A, E93S
B34: 374_G12 (antibody, V domains shown)
VH: B1 VH with S31D, S33G, G50S, S55G, T58K
VL: B1 VL with L33V, R54L, H55A, E93N, N94S
B35: 367_F10 (antibody, V domains shown)
VH: B1 VH with S33G, S99A
VL: B1 VL with V47L, H55A, E93D, N94T
B36: 374_E06 (antibody, V domains shown)
VH: B1 VH with G50S, T58K, S59G
VL: B1 VL with T31S, V47L, H55A, E93D, N94L
B37: 365_E03 (antibody, V domains shown)
VH: B1 VH with G50N, S55G, S59G
VL: B1 VL with L33V, V47L, R54L, Y92D, N94R
B38: 370_D07 (antibody, V domains shown)
VH: B1 VH with D30S, S33G, G50N, S59G
VL: B1 VL with T31S, L33V, R54L, H55A, N94S
B39: 367_D02 (antibody, V domains shown)
VH: B1 VH with S31D, G50N, S55G
VL: B1 VL with L30V, L33V, V47L, H55A
B40: 376_H08 (antibody, V domains shown)
VH: B1 VH with S33G, G50N, S55G, T58K, S59G
VL: B1 VL with V47L, Y92D, E93S, N94L
B41: 372_H03 (antibody, V domains shown)
VH: B1 VH with S33G, G50N, S55G, T58K
VL: B1 VL with L30I, L33V, V47L, R54L, H55A, E93N, N94L
B42: 368_G08 (antibody, V domains shown)
VH: B1 VH with S31D, S33G, G50S, T58K
VL: B1 VL with L30V, T31S, L33V, V47L, E93N
B43: 374_A08 (antibody, V domains shown)
VH: B1 VH with G50N
VL: B1 VL with L30V, V47L, R54L, H55A, E93D, N94L
B44: 370_A08 (antibody, V domains shown)
VH: B1 VH with G50S, S59G
VL: B1 VL with L30V, H55A, E93D, N94L
B45: 369_E09 (antibody, V domains shown)
VH: B1 VH with G50N, T58K, S59G
VL: B1 VL with T31S, H55A, E93D, N94L

The record followed here is US20210380703A1.

Numbering of substitutions follows the chain as printed.

The target in the experiment is human Fc (human). The experiment can be described thus: ELISA, negative control. For orientation: In an ELISA, binding on a coated surface is turned into a signal by an enzyme label.
Molecule B1 returned an optical density of 0.16 OD.

On to B2, for which the optical density came out at 0.304 OD.

Take B3: the optical density amounted to 0.161 OD.

In the case of B4, the optical density worked out at 0.312 OD.

Take B5: the optical density was determined as 0.413 OD.

For the molecule B6, the optical density was 0.199 OD.

B7 returned an optical density of 0.301 OD.

The molecule B8 showed an optical density of 0.387 OD.

Molecule B9 displayed an optical density of 0.175 OD.

For the molecule B10, the optical density worked out at 0.225 OD.

In the case of B11, the optical density amounted to 0.374 OD.

B12 returned an optical density of 0.29 OD.

With B13, the optical density was 0.176 OD.

Molecule B14 displayed an optical density of 0.319 OD.

The molecule B15 returned an optical density of 0.166 OD.

B16 came in with an optical density of 0.289 OD.

B17 came in with an optical density of 0.434 OD.

Consider B18, for which the optical density came out at 0.46 OD.

B19 registered an optical density of 0.177 OD.

B20: the optical density is 0.341 OD.

Molecule B21 yielded an optical density of 0.162 OD.

B22: the optical density came out at 0.325 OD.

For B23, the optical density was 0.567 OD.

With B24, the optical density turned out to be 0.33 OD.

B25 showed an optical density of 0.18 OD.

Molecule B26 displayed an optical density of 0.384 OD.

B27 came in with an optical density of 0.281 OD.

B28 had an optical density of 0.246 OD.

As for B29, the optical density turned out to be 0.299 OD.

With B30, the optical density is 0.178 OD.

As for B31, the optical density amounted to 0.395 OD.

Regarding B32, the optical density turned out to be 0.282 OD.

B33 displayed an optical density of 0.274 OD.

Regarding B34, the optical density is 0.214 OD.

As for B35, the optical density worked out at 0.253 OD.

Turning to B36, the optical density was 0.191 OD.

For B37, the optical density was determined as 0.314 OD.

In the case of B38, the optical density stood at 0.309 OD.

The molecule B39 gave an optical density of 0.321 OD.

On to B40, for which the optical density was determined as 0.274 OD.

As to B41, the optical density stood at 0.437 OD.

Molecule B42 had an optical density of 0.329 OD.

Regarding B43, the optical density stood at 0.16 OD.

In the case of B44, the optical density stood at 0.319 OD.

The molecule B45 displayed an optical density of 0.278 OD.
